The values that follow come from patent publication US20190352664A1, “COMPOSITIONS AND METHODS FOR CONTROLLING GENE EXPRESSION” (priority 2017, published 2019).

Sequences and labels used below:
B1: AT4G24750.1_1: uORF of AT4G24750.1; peptide SEQ ID NO: 26 (nucleic acid)
DNA: ATGAAGCCAAAACTATCCAATAACTCGAAATTGACTACTCTTTTCTTTTGTCTCTGTTGTTGA
modifications: listed as DNA, chemistry not fully specified
B2: AT4G26080.1: 5′ UTR of transcript; Protein phosphatase 2C family protein (nucleic acid)
DNA: GAAGCAATTGTTGCATTAGCCTACCCATTTCCTCCTTCTTTCTCTCTTCTATCTGTGAACAAGGCACATTAGAACTCTTCTTTTCAACTTTTTTAGGTGTATATAGATGAATCTAGAAATAGTTTTATAGTTGGAAATTAATTGAAGAGAGAGAGATATTACTACACCAATCTTTTCAAGAGGTCCTAACGAATTACCCACAATCCAGGAAACCCTTATTGAAATTCAATTCATTTCTTTCTTTCTGTGTTTGTGATTTTCCCGGGAAATATTTTTGGGTATATGTCTCTCTGTTTTTGCTTTCCTTTTTCATAGGAGTCATGTGTTTCTTCTTGTCTTCCTAGCTTCTTCTAATAAAGTCCTTCTCTTGTGAAAATCTCTCGAATTTTCATTTTTGTTCCATTGGAGCTATCTTATAGATCACAACCAGAGAAAAAGATCAAATCTTTACCGTTA
B3: AT1G16700.1: 5′ UTR of transcript; Alpha-helical ferredoxin (nucleic acid)
DNA: AAATTAAGAGACATCTGATCGAATTTTGTTCCGACGACCGTGAATCACCAGCAAAGGATTCGTGTCAATGTTCTTGTGAGATCGAACTTTCTCTGGGTTCGTGCAGAAGCTTTGCTTTTTTGAGTATCGCGTTTAAGGCACATCGAAGAAGAGAGACCCTAATTTGATATTTTGAGTTCTATCG
B4: AT3G55020.1: 5′ UTR of transcript; Ypt/Rab-GAP domain of gyp1p superfamily protein (nucleic acid)
DNA: GTCACACATGTAATAAACCTTGGTCGACAATCTCGCCCTTTCCATGTGATTTCTCCACTTCCTCTCTCTCTCTACTGCAACTTCCTCCTCCTGCTTCAACTTCATTCGGGTAATGATGAACTAGCGTAGAGATTTGGATCTTCTTCTTCGTCCTCTCACCAACTCTTCACCGGTTAGATCTCTTTTTCACGCTAACGA
B5: AT4G32800.1: 5′ UTR of transcript; Integrase-type DNA-binding superfamily protein (nucleic acid)
DNA: ATTTCATAAATCATAGAGAGAGAGAGAGAGAGAGAGAGAGAGTTTGGAAACATTCCAAAACCAGAACTCGATATTATTTCACCAAAGAATGATAGAAACAAGAACTATCTTTTTATAAAACTCTTTACACCCCAAAAGAAAATGTCTCACTCGTTTTGCCTTATAATATTTCTTTCAACAACAACCCAAATCTACAAAAAATCCCAATAAAAAAAAACTTCAGTCTGTTTGACATTTTGTCGAACACTTGGACGGCATCACAAAAAGCTCTAAACTTTCTGACTACCA
B6: AT4G17840.1: 5′ UTR of transcript (nucleic acid)
DNA: ATCAAAATCAATGATCAAGGTAACGTAGTCAAGTTCAATTACTCTTTGTCAAATTTAAGTGGTCTCTATTACTAAACTATACACAACCGTTAGATCAAATAATTCTCTACCATCCAACGGTCCAAAGTCTCCACTTCTATTTATTACAATAAAATGAGAAAATAAAAACGCGCGGTCACCGATTCTCTCTCGCTCTCTCTGTTACTAAATGAAGAAGAGAATCTCTCCGGCGAGATCACCGGCGTTATTCCGATAATTTCGCCTGAGAGTTGTCGCATGTTATAA
B7: AT4G23740.1: 5′ UTR of transcript; Leucine-rich repeat protein kinase family protein (nucleic acid)
DNA: CTTTCACCCACTTTAATATGCCAAAAAATAAGAACAAAATTATATCCGTTGCTTGAAAATCACAAGCTCTTCTTAACTTCACAAGTGCTTCAATGGCGGTTCTTCACATTATCTTCACTGCGTAATTGAAGAAGTTGTTCTCTCTTCCTCTTAATTTCGAGTTGTGTTCTTAAAAAACTCCAGAGCTGATTCGATTCTCGAGAAGAAACTAAGCCGACAATAAAGTTCAGATCTGGAAAAAAGCGAGCTCCAGATTACAAAAAGAAACAGCTCGTTTTTTTCACTTTCAAAAAA
B8: AT3G56010.1: 5′ UTR of transcript (nucleic acid)
DNA: GTGTTTAGCTTCTTCACTACCACACAGAAACAGAGTTTCCGTCTTTCATCTTCCTCCATATGCGTCGCTCTTAAAAACCTAATTCACA
modifications: listed as DNA, chemistry not fully specified
notes: 5′ UTR of transcript
B9: AT4G24750.1: 5′ UTR of transcript; Rhodanese/Cell cycle control phosphatase superfamily protein (nucleic acid)
DNA: GAGTCTGGTTCGAAAAGACTGCTTCAATGAAGCCAAAACTATCCAATAACTCGAAATTGACTACTCTTTTCTTTTGTCTCTGTTGTTGATTCGCAAAGGCGAAGATTATCCATCTTCTCAGTTACTCCTACTGGAACCAAAAGCTCAGAACCTTAAAAC
B10: AT3G63340.1: 5′ UTR of transcript; Protein phosphatase 2C family protein (nucleic acid)
DNA: TCTTCTTCTTCGTTTTCAGGCGGGTGGAGGAGCTCAGAGCCTTCCAGAGGTAACCAACCTTTTATTACCGACAAGATTCTGCCACACAATTATTACATATTTTTGTTCCCATGAAGCAATTGTTCCTTTCAAGCATGTTTACGAGCAAAAGAGTGAAAGGGTAGCTTGATTTTTGTCTACTCTAGCTTCATTTTCTGGCGATCTTTACTTGAGATTTAAACATTTTGCTCTCGGATTGATAATAAAGAAGAATTTGGAATATCAGTAGGTTTGGTTAGGACTCTCGGATTCTGTTGTCGGTTAGATATTTGTTTTGTTTAATCCCTAGATTTAGCAGAGAAATCCCTCAAATCTCACACAATCCATGTAAGGAAGAAG
B11: AT4G32660.1: 5′ UTR of transcript; Protein kinase superfamily protein (nucleic acid)
DNA: AATTGGTGGATGTCGTCGCGGTTCGACCCCAAGGGATTTGGCCGGTAAAATTATTGGGAGTTGTCTTTCTCTTGCACTCTCTCTAGTTCCAAACCCTAGCAATTCCTCTGTTTTCACCATTTTCGGAGATTATCACCTTCTCCCCGATTCGCCGCCTTGTGATTACATCTACGTAAAGAGTTTCTGGTAGAAATTTTCCCTCTTTTAGCTGCAGATTGGCATCAGATTCCGTTCTGGATGTGTCGGTGATCGATTTTCCGCGTCGGTG
B12: AT4G11110.1: 5′ UTR of transcript; SPA1-related 2 (nucleic acid)
DNA: CTTACTTAAACACAGTCAAATTCATTTTCTGCCTTAGAAAAGATTTTTATCGAAAATCGACGTTTTTGAAAAAACTCAAATTATCGTCGTTTTGTTCTCAGATTTCTTCTGCTCTCTTCTTCTTCTCCTTCTTCTTCGTTCCACCGCCTCTGTTGCTTTATCTTCTTCTTCCTTCCTTCGATTGTTGATTACGTCGGTGGATCTTTGTTCTCCTCTGTGTTGTTTTCATTGCTAGATTTCGTCAATGATTGGCTTCTCACGATTCGATTTTTCCGGCTCCTGTTCTTAATTTCCTCTGAGAGA
B13: AT3G18140.1: 5′ UTR of transcript; Transducin/WD40 repeat-like superfamily protein (nucleic acid)
DNA: ATGAGAAAAGCTTGGTAAAAACCCTATTTTTCTTCTTCTCTTCAATTTACAGTTCTCTGCACCTTTTTCTTTCCCCTGTTTTTTGATCCTCAATCACCAAACCCTAGCTTGTTCTTCTGTTGATTATTTCGAAAAGGGGGTTTGTTTGTTTTCTGGGAATCAGCAAAAATCACGAAATGGTTGGTTTAATATTTCAATCGGGATAAAATCGATCGAAA
B14: AT1G19270.1: 5′ UTR of transcript; DA1 (nucleic acid)
DNA: CGTGGGGAACGTTTTTTCCTGGAAGAAGAAGAAGAAGAGCTCAACAAGCTCAACGACCAAAAAACTTCGGACACGAAGACTTTTTAATTCATTTCTCCTCTTTTGTTTTTTTCGTTCCAAAATATTCGATACTCTCGATCTCTTCTTCGTGATCCTCATTAAATAAAAATACGATTTTTATTCTTTTTTTGTGAGTGCACCAAATTTTTTGACTTTGGATTAGCGTAGAATTCAAGCACATTCTGGGTTTATTCGTGTATGAGTAGACATTGATTTTGTCAAAGTTGCATTCTTTTATATAAAAAAAGTTTAATTTCCTTTTTTCTTTTCTTTTCTCTTTTTTTTTTTTTTCCCCCATGTTATAGATTCTTCCCCAAATTTTGAAGAAAGGAGAGAACTAAAGAGTCCTTTTTGAGATTCTTTTGCTGCTTCCCTTGCTTGATTAGATCATTTTTGTGATTCTGGATTTTGTGGGGGTTTCGTGAAGCTTATTGGGATCTTATCTGATTCAGGATTTTCTCAAGGCTGCATTGCCGTATGAGCAGATAGTTTTATTTAGGCATT
B15: AT4G18570.1: 5′ UTR of transcript; Tetratricopeptide repeat (TPR)-like superfamily protein (nucleic acid)
DNA: ATTTTTATTACTCTCTCAAGTAGTCTCATCTTCTTCTTAATCCAAAGGCCCAAACTTTGAATCATCACTATCACTCTCTCTCTCTCTCTCTATCTCTCAAGAACTGCACGGACAACGACATGCTTTTAATTTCCATGCAAATCTCTCCTTTCTTCTCAAGTCATTTTTGAAAATCAATCAAAAAACTGAAACTTGGTGGAGCTTTTATCATTCACTCATCA

One data set deals with Arabidopsis. The experiment in a line: Ribo-seq and RNA-seq global translatome profiling (translational efficiency TE, mORF/uORF ribo-shift) upon elf18 treatment. Details: key to score (Ribo-shift): Up: ribo-shift up (i.e., increased mORF/uORF ratio); Down: ribo-shift down (i.e., decreased mORF/uORF ratio). It counts as in vivo. Conditions: shift of mORF/uORF ratio, elf18 vs Mock; per uORF.
In the case of B1, the “score (Ribo-shift)” value is on record as “Down”.

The same data set, now with this note: translational efficiency fold change, elf18 vs Mock; listed as shows 5′ UTR of the transcript.
As to B2, the “score (TE change)” value is reported as “TEdown (389 genes displayed decreased TEfc (|z|≥1.5))”. Still for that read-out and setting: with B3 the entry was “TEdown (389 genes displayed decreased TEfc (|z|≥1.5))”; with B4, “TEup (448 had increased TEfc)”; with B5, “TEdown (389 genes displayed decreased TEfc (|z|≥1.5))”.

With B6, the “score (TE change)” value is on record as “TEup (448 had increased TEfc)”. Still for that read-out and setting: in the case of B7 it was “TEup (448 had increased TEfc)”; in that of B8, “TEup (448 had increased TEfc)”. Turning to B9, the “score (TE change)” value was “TEdown (389 genes displayed decreased TEfc (|z|≥1.5))”. Consider B10, for which the “score (TE change)” value was “TEdown (389 genes displayed decreased TEfc (|z|≥1.5))”. On the same count and under the same terms, in the case of B11 it was “TEup (448 had increased TEfc)”. Still for that read-out and setting: in the case of B12 it was “TEup (448 had increased TEfc)”. On the same count and under the same terms, in the case of B13 it was “TEup (448 had increased TEfc)”; in that of B14, “TEdown (389 genes displayed decreased TEfc (|z|≥1.5))”; in that of B15, “TEdown (389 genes displayed decreased TEfc (|z|≥1.5))”.
